# Laboratory results: patent US20210253725A1 (BIONTECH, published 2021)
# Numbering of substitutions follows the chain as printed. Names may count otherwise.
# T1: CD134 expressed on the cell surface of HT1080_OX40 cells (human, UniProt P43489 29-277)
# T1 sequence (looked up): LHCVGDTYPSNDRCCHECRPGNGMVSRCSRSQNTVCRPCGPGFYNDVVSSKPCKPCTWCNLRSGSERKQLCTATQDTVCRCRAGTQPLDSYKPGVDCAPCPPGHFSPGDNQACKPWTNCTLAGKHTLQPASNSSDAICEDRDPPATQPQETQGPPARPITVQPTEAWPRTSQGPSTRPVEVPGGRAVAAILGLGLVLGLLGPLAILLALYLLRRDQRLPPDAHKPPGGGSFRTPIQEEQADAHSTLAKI
# T2: CD134 protein (His-tagged, Sino Biological Inc. 10481-H08H) (human, UniProt P43489 29-216)
# T2 construct: bought protein coated on ELISA plates; also called OX40; TNFRSF4; not shown: His tag
# T2 sequence (looked up): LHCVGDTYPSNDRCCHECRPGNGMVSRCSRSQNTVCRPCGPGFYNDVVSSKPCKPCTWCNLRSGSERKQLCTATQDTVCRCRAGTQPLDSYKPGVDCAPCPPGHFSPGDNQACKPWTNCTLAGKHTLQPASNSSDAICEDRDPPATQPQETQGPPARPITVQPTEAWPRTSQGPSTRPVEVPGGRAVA
# B1: P018.S.03.A.E03 (antibody, V domains shown)
# VH: QSVEESGGRLVTPGTPLTLTCTVSGFSLSTYGMSWVRQAPGKGLEWIGIIDAGDSPYYASWVKGRFTISKTSTTVDLKITSLTTEDTATYFCARIAGSNHGPFSLWGPGTLVTVSS
# VL: DVVMTQTPASVSEPVGGTVTINCQASEFISNYLAWYQQKPGQPPKLLIYGASTLASGVPSRFSGSGSGTQFTLTISDLESDDAATYYCQCTAYGSGYVGFGGGTEVVVK
# notes: V regions on human Ig constant parts; also called AB134_4
# B2: P018.S.12.A.G05 (antibody, V domains shown)
# VH: B1 VH with A52G, V62A, K63E, L82P, S104D
# VL: B1 VL with S63K, Q70D, D81A, G96S
# notes: V regions on human Ig constant parts; also called AB134_87
# B3: P018.S.04.A.G05 (antibody, V domains shown)
# VH: QSVEESGGRLVTPGTPLTLTCTVSGFSLSTYYMSWVRQAPGKSLEWIGCIHGDDGSTWYASWVQGRFTISKASTTVDLQIASPTTEDTATYFCARGLPYWPNDGDFNLWGQGTLVTVSS
# VL: TQVLTQTPSPVSAAVGGTVSISCQSSQSVYNNNWLSWFQQKPGQPPKLLVYGASTLASGVPSRFKGSGSGTQFTLTISDLESDDAATYYCAGGYYTTSDNGFGGGTEVVVK
# notes: V regions on human Ig constant parts; also called AB134_14
# B4: P018.S.04.A.F05 (antibody, V domains shown)
# VH: QSVEESGGRLVTPGTPLTLTCTVSGIDLSSYTMGWVRQAPGKGLEYIGIIGTSGTTYYSSWAKGRFTISKTSTTVDLKITSPTTEDTATYFCARLGDDYGDFHFNLWGQGTLVTVSS
# VL: DLVMTQTPASVSEPVGGTVTIKCQASQNIGNYLAWYQQKPGQPPKLLIYAASNLASGVSSRFKGSGSGTEYTLTISDLESADAATYYCQCTYYDSTYFAFGGGTEVVVK
# notes: V regions on human Ig constant parts; also called AB134_12
# B5: P018.S.05.A.G05 (antibody, V domains shown)
# VH: QSVEESGGRLVTPGTPLTLTCTVSGIDLSNHGMGWFRQGPGKGLEWIGIIYIDGGASYASWVNGRFTISKTSTTVDLKITSPTTEDTATYFCARGIPSDGDSSYYYFNLWGQGTLVTVAS
# VL: DVVMTQTPASVEAAVGGTVTIKCQASQSVYNKYLSWFQQKPGQPPKLLIYRASTLESGVSSRFKGSGSGTEFTLTISDLESADAATYYCQNNNGAGDNTDYTFGGGTEVVVK
# notes: V regions on human Ig constant parts; also called AB134_18
# B6: P018.S.04.A.H05 (antibody, V domains shown)
# VH: QSVEESGGRLVTPGTPLTLTCTVSGFSLSSYAMGWVRQAPGKGLEWIGWINTAGGTDYTSWAKGRFTISKTSTTVDLKVTSLTTEDTATYFCARYDYYYFDLWGQGTLVTVSS
# VL: AQVLTQTASSVSAAVGGTVTISCQSSQSVYDNNWLAWYQQKPGQPPKLLIYSASTLASGVPSRFKGSGSGTEFTLTISDLESDDAAAYYCHGVYSGSIHAFGGGTEVVVI
# notes: V regions on human Ig constant parts; also called AB134_15
# B7: P018.S.04.A.E06 (antibody, V domains shown)
# VH: QSVEESGGRLVTPGTPLTLTCTVSGFSLSGYDMSWVRQAPGKGLEWIGYIYAGSTYYANWAKGRFTISKTSTTVDLKMTSPTTEDTATYFCTRVGAGYSGVWAYFNLWGPGTLVTVSS
# VL: AQVLTQTPSSVSAAVGGTVTINCQSSQSVDSDNYLAWYQQKPGQPPKLLIYDASKLASGVPSRFTGSGSGTQFTLTISGVQSDDAATYYCQGTYGNIGWYFAFGGGTEVVVK
# notes: V regions on human Ig constant parts; also called AB134_11
# B8: P018.S.04.A.D06 (antibody, V domains shown)
# VH: QSLEESGGDLVKPGASLTLTCTASGFSFSSSYYMCWVRQAPGKGLEWIACIYTGDGASYYASWAKGRFTISKPSSTTVTLQVTSLTAADTATYFCGRGEYDNDWGFGLWGPGTLVTVSS
# VL: AYDMTQTPASVEVPVGGTVTINCQASEDISSYLSWYQQKPGQPPELLIYYASNLASGVSSRFKGSRSGTEFTLTISDLESADAATYYCQCSNYGGSWTFGGGTEVVVK
# notes: V regions on human Ig constant parts; also called AB134_9
# B9: P018.S.04.A.B06 (antibody, V domains shown)
# VH: QSVEESGGRLVTPGTFLTLTCTVSGFSLSSYAMNWVRQSPGKGLEWIGIIYSDDIAYYASWAKGRFTISKTSTTVTLKMTSLTVADTATYFCARGDGDRSIWSFDLWGPGTLVTVSS
# VL: AQVLTQTPSPVSAAVGGTVTISCQSSESVWNNNWLAWYQQKPGQPPNLLIYEASTLASGVSSRFKGSGSGTQFTLTVSEVQSDDAATYYCQGGYYDSSPIWTFGGGTEVVVK
# notes: V regions on human Ig constant parts; also called AB134_7
# B10: P018.S.11.A.A05 (antibody, V domains shown)
# VH: QSVEESGGRLVTPGTPLTLTCTVSGFSLNSYDMSWVRQAPGKGLEWIGFISASGSIYFANWAKGRFTISKTSTTVDLKITSPTTEDTATYFCASDSYGWAYVYYFNLWGPGTLVTVSS
# VL: AVVLTQTPASVSAAVGGTVTINCRASEDIGSYLGWYQQKPGQPPKLLMHDASDLASGVPSRFSGSGSGTEFTLTISGVQSDDAATYYCQSAWYSSGTDKMAFGGGTEVVVK
# notes: V regions on human Ig constant parts; also called AB134_22
# B11: P018.S.12.A.E04 (antibody, V domains shown)
# VH: B10 VH
# VL: B10 VL with I29V, K39R, P40A, Y93L, S94G, S95T, G96N
# notes: V regions on human Ig constant parts; also called AB134_75
# B12: P018.S.04.A.A06 (antibody, V domains shown)
# VH: QSLEESGGRLVTPGTPLTLTCTVSGFSLHNYNIQWVRQAPGKGLEWIGWILTDGSPYCANWAKGRFTISKTSTTVDLKITSPTIEDTATYFCARMGDYNINGLWGPGTLVTVSS
# VL: AQVLTQTPSSVSAAVGGTVTINCQSSQRIYNNDFLSWYQQKPGQPPKLLIYAASTLASGVPSRFKGSGSGTQFTLTISDLESDDAATYYCQGGYSSSGWYLPFGGGTEVVVK
# notes: V regions on human Ig constant parts; also called AB134_5
# B13: P018.S.04.A.F06 (antibody, V domains shown)
# VH: QSVEESGGRLVTPGTPLTLTCTVSGIDLSSSAMSWVRQAPGKGLEWIGIIGYNDFTYYANWAKGRFTISKTSTTVDLKMTSPTTEDTATYFCARGGSSSYSDYVFDPWGPGTLVTVSS
# VL: AFEMTQTPSSVSEPVGGTVTIKCQASQSIYSNLAWYQQKPGQRPKLLIYDASDLASGVPSRFSGSGYGTEFTLTISDLESADAATYYCQSYYGISSYGVAFGGGTEVVVK
# notes: V regions on human Ig constant parts; also called AB134_13
# B14: P018.S.11.A.C04 (antibody, V domains shown)
# VH: QSVEESGGRLVTPGTPLTLTCTVSGFSLGSYPMIWVRQAPGKGLEWIGYIDPGRGTTLYASWARGLFTISKTSTTVDLAMTSPTAADTATYFCARSYPGDGAGDLWGQGTLVTVSS
# VL: DVVMTQTPASVSEPVGGTVTIKCQASESISNYFSWYQQKPGQPPKLLIYGASTLESGVSSRFKGSGSGTDFTLTISDLESADAATYYCQCTYYGSGDVGGAFGGGTEVVVK
# notes: V regions on human Ig constant parts; also called AB134_29
# B15: P018.S.11.A.C03 (antibody, V domains shown)
# VH: QSVEESGGRLVTPGTPLTLTCKVSGFSLSTYDMIWVRQAPAKGLEYIGIIGGSGFTYYANWAKGRFTISKTSTTVDLKITSPTTEDTATYFCARNNYDMWGPGTLVTVSS
# VL: DVVMTQTPASVSEPVGGTVTIKCQASQSISNELAWHQQKPGQRPNLLIYGASTLESGVPSRFKGSRSGTEYTLTISDLESDDAATYYCQCTYYGSSYVGGAFGGGTEVVVK
# notes: V regions on human Ig constant parts; also called AB134_28
# Biological target: T1, CD134 expressed on the cell surface of …
# Assay: cell-based or functional assay
# For Functional assay Cross-linked by F(ab′)2 fragment IL-8 in this document: test concentration or dose not given here.
# For Functional assay IL-8 in this document: test concentration or dose not given here.
row,Binder,"EC 50 (IL-8 release, cross-linked)"
1,B1,0.529 µg/mL
2,B2,0.745 µg/mL
3,B3,0.669 µg/mL
4,B4,0.225 µg/mL
5,B5,0.975 µg/mL
6,B6,1.17 µg/mL
7,B7,1.39 µg/mL
8,B8,0.355 µg/mL
9,B9,0.461 µg/mL
10,B10,0.865 µg/mL
11,B11,1.01 µg/mL
12,B12,0.63 µg/mL
13,B13,0.44 µg/mL
14,B14,0.785 µg/mL
15,B15,0.217 µg/mL

# Biological target: T1, CD134 expressed on the cell surface of …
# Assay: cell-based or functional assay
# Remark: another data set of the same source
Binder,Functional assay Cross-linked by F(ab′)2 fragment IL-8,Functional assay IL-8
B1,2.54 abs. corr.,0.314 abs. corr.
B2,2.19 abs. corr.,0.13 abs. corr.
B3,2.41 abs. corr.,-0.022 abs. corr.
B4,2.4 abs. corr.,0.181 abs. corr.
B5,2.39 abs. corr.,2.62 abs. corr.
B6,2.39 abs. corr.,0.356 abs. corr.
B7,2.38 abs. corr.,0.135 abs. corr.
B8,2.3 abs. corr.,1.01 abs. corr.
B9,2.27 abs. corr.,1.82 abs. corr.
B10,2.15 abs. corr.,0.26 abs. corr.
B11,2.23 abs. corr.,0.455 abs. corr.
B12,2.21 abs. corr.,0.879 abs. corr.
B13,2.21 abs. corr.,2.07 abs. corr.
B14,2.19 abs. corr.,0.253 abs. corr.
B15,2.19 abs. corr.,0.586 abs. corr.

# Biological target: T1, CD134 expressed on the cell surface of …
# Assay: HT1080_OX40 cells, imaging; also: test concentration or dose not given here
row,Binder,Cellular binding assay [RFU]
1,B1,419 RFU
2,B2,570 RFU
3,B3,451 RFU
4,B4,368 RFU
5,B5,463 RFU
6,B6,451 RFU
7,B7,140 RFU
8,B8,510 RFU
9,B9,482 RFU
10,B10,550 RFU
11,B11,659 RFU
12,B12,486 RFU
13,B13,402 RFU
14,B14,406 RFU
15,B15,507 RFU

# Biological target: T2, CD134 protein (His-tagged, Sino …)
# Assay: ELISA, coated His-tagged CD134; also: test concentration or dose not given here
row,Binder,ELISA [abs. corr.]
1,B1,2.72 abs. corr.
2,B2,2.04 abs. corr.
3,B3,2.87 abs. corr.
4,B4,2.44 abs. corr.
5,B5,2.62 abs. corr.
6,B6,2.97 abs. corr.
7,B7,0.206 abs. corr.
8,B8,2.49 abs. corr.
9,B9,2.64 abs. corr.
10,B10,1.9 abs. corr.
11,B11,2.21 abs. corr.
12,B12,2.85 abs. corr.
13,B13,2.36 abs. corr.
14,B14,1.96 abs. corr.
15,B15,1.53 abs. corr.
